Test results taken from paper PMC4102767.

Assays:
[1] = target: Dpb11 (UniProt P47027); assay: Flag purification, SILAC quantitative MS; settings: reference: wild type; sites S486
[2] = target: Dpb11 (UniProt P47027); assay: anti-Flag co-IP, Western blot; settings: reference: wild type (undamaged or MMS); sites S486

Substance | fold change [1] | binding against the reference [2]
Slx4 (from UniProt Q12098) S486A | weaker | 
Slx4 (from UniProt Q12098) S486A (undamaged or MMS) |  | weaker
